The assay deals with T1, full-length human EB1 (human), Q15691.
T1 chain: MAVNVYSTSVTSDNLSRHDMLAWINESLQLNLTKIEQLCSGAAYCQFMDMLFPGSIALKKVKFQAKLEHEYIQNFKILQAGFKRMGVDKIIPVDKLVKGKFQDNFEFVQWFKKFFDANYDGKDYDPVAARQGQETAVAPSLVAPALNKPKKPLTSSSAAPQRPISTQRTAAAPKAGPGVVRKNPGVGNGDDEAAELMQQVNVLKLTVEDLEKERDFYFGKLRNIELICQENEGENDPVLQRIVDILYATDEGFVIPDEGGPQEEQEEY
As to the kind of experiment: AUC. Particulars: remark: other sources report otherwise.

B1: full-length human EB1, Q15691 1-268 (natural protein)
chain: MAVNVYSTSVTSDNLSRHDMLAWINESLQLNLTKIEQLCSGAAYCQFMDMLFPGSIALKKVKFQAKLEHEYIQNFKILQAGFKRMGVDKIIPVDKLVKGKFQDNFEFVQWFKKFFDANYDGKDYDPVAARQGQETAVAPSLVAPALNKPKKPLTSSSAAPQRPISTQRTAAAPKAGPGVVRKNPGVGNGDDEAAELMQQVNVLKLTVEDLEKERDFYFGKLRNIELICQENEGENDPVLQRIVDILYATDEGFVIPDEGGPQEEQEEY
Turning to B1, the Kd (as a rule, a measure of binding affinity in units of concentration) amounted to 88.5 nM and the stoichiometry N (usually a count of units in the complex or per binding partner) worked out at 2.

The values above are taken from PMC4070737.
